pKd: −log10 of the molar value.

For orientation: pKd means the Kd on a negative log10 scale, so that one unit is a factor of ten. Low readings indicate a high Kd, high ones a low Kd.

Assay [1] addresses Epidermal Growth Factor Receptor (EGFR) expressed on the surface of A431 cells (human (endogenous in A431)) (UniProt P00533). Briefly: on-cell binding assay (cell ELISA, chemiluminescence); as a1, but after the 5 min at 37 °C the plate was irradiated with 365-nm light for 10 min (33 mW per cm2) before washing and fixing; Kd from a sigmoidal nonlinear fit. A general note: In an ELISA, binding on a coated surface is turned into a signal by an enzyme label.

Assay [2] deals with extracellular domain of EGFR (sEGFR) (UniProt P00533). Briefly: cross-linking; photocrosslinking in PBS, 10-μl reaction: 10 pmol sEGFR (or BSA) with 100 pmol 7D12 mutant (0-200 pmol in Fig. 2d), 5 min at 37 °C, 365-nm light for 10 min; PNGase F; denaturing SDS-PAGE, Coomassie; percent from band intensities.

7D12-32pcY-109Bpa (VHH) gave a negative logarithm of the Kd (pKd) in assay [1] of 6.99. Moreover, the percent crosslinked to EGFR in assay [2] was 33%.
